± gives the standard error. For some assays here: Variants at the floor of the assay were thinned out.
B1: glmS ribozyme (parent)
chain: AUAAAAGCGCCAGAACUACAGAAAUGUAGUUGACGAGGAGGAGGUUUAUCGAAUUUUCGGCGGAUGCCUCCAAA

Columns and labels:
Details in all cases: with glucosamine-6-phosphate
[1] = variants of: B1; experiment: kcat; higher = faster cleavage; RNA array
Method in brief: (§1)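 Sequenced MiSeq chips were the platform: E. coli RNA polymerase transcribed barcoded ribozyme variants on them in situ, and a hybridised Cy3 probe tracked these at 37 °C. After glucosamine-6-phosphate (40 μM to 10 mM) in HEPES/KCl/Mg(OAc)2 buffer was flowed in, tiles were imaged over ~14 h. Signals normalised to baseline and to non-cleaving reference variants were reduced to per-tile medians and fit to one- or two-exponential decays to obtain kobs. kcat and KM were derived through weighted Michaelis–Menten fits across concentrations.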

[2] = variants of: B1; experiment: KM; higher = weaker cofactor use; RNA array
Method in brief: as §1

[3] = variants of: B1; experiment: self-cleavage kobs at 40 uM GlcN6P; higher = faster cleavage; RNA array
Method in brief: as §1

[4] = variants of: B1; experiment: self-cleavage kobs at 160 uM GlcN6P; higher = faster cleavage; RNA array
Method in brief: as §1

[5] = variants of: B1; experiment: self-cleavage kobs at 640 uM GlcN6P; higher = faster cleavage; RNA array
Method in brief: as §1

[6] = variants of: B1; experiment: self-cleavage kobs at 2500 uM GlcN6P; higher = faster cleavage; RNA array
Method in brief: as §1

[7] = variants of: B1; experiment: self-cleavage kobs at 10000 uM GlcN6P; higher = faster cleavage; RNA array
Method in brief: as §1

Variant	kcat [1]	KM [2]	self-cleavage kobs at 40 uM GlcN6P [3]	self-cleavage kobs at 160 uM GlcN6P [4]	self-cleavage kobs at 640 uM GlcN6P [5]	self-cleavage kobs at 2500 uM GlcN6P [6]	self-cleavage kobs at 10000 uM GlcN6P [7]
AUAAAAGCGCCAGAACUACAGAAAUGUAGUUGACGAGGAGGAGGUUUAUCGAAUUUUAGGUGGAUGCCUCCAAA	< 1e-05 s⁻¹						
AUAAAAGCGCCAGAACUACAGAAAUGUAGUUGACGAGGAGGAGGUGUAUCGAAUUUUCGGCGGAUGACUCCAAA	0.00184 ± 0.00032 s⁻¹	818 ± 220 µM	0.000105 ± 1.1e-05 s⁻¹	0.000224 ± 3.9e-05 s⁻¹	0.000783 ± 0.0001 s⁻¹	0.00146 ± 0.00022 s⁻¹	0.00173 ± 0.00021 s⁻¹
AUAAAAGCGCCAGAACUACAGAAAUGUAGUGGACGUGGAGGAGGUUUAUCGAAUUUUCGGCGGAUGCCUCCAAA	< 1e-05 s⁻¹				< 1e-05 s⁻¹		< 1e-05 s⁻¹
AUAAAGGCGCCAGAACUACAGAAAUGUAGUUGACGAGGAGGAGGUUUAUCGAAUUGUCGGCGGAUGCCUCCAAA	0.000188 ± 3.3e-05 s⁻¹	1150 ± 540 µM			7.97e-05 ± 1.2e-05 s⁻¹	0.000107 ± 1.5e-05 s⁻¹	0.000191 ± 2.3e-05 s⁻¹
AUAAAAGCGCCAGAACUACAGAAAUGUAGUUGACGAGCAGGAGGUUUAUGGAAUUUUCGGCGGAUGCCUCCAAA	1.28e-05 ± 1.9e-06 s⁻¹						
AUAAAAGCGCCAGAACUACAGAAAUGUAGUUGACGAGGAGGAGGUUUAUCGAACUCUCGGCGGAUGCCUCCAAA	0.0062 ± 0.0012 s⁻¹	4050 ± 1000 µM	7.75e-05 ± 1.4e-05 s⁻¹	0.000223 ± 3.3e-05 s⁻¹	0.00084 ± 0.00013 s⁻¹	0.002 ± 0.00042 s⁻¹	0.00471 ± 0.00069 s⁻¹
AUAAAAGCGCCAGAACUACAGAAAUGUAGUUGACGAGGAGGCGGUUUAUCGAAUUUUCGGCGGAUGCCUCCAAA	1.83e-05 ± 2.5e-07 s⁻¹	5140 ± 190 µM					1.21e-05 ± 1.4e-06 s⁻¹
AUAAAAGCGCCAGAACUACAGAAAUGUAGUUGACGAGGAGGAGGUUUAUCGAAUUAUCGGCGGAUGCGUCCAAA	7.31e-05 ± 8.9e-06 s⁻¹			6.33e-05 ± 1.2e-05 s⁻¹	0.00011 ± 1.5e-05 s⁻¹	6.61e-05 ± 7.6e-06 s⁻¹	6.94e-05 ± 7.3e-06 s⁻¹
AUAAAGGCGCCAGAACUACAGAAAUGUAGUUGACGAGGAGGAGGUUUAUCGAAUUUUCGGCGGAUGCCUCCAAA	0.00068 ± 9.8e-05 s⁻¹	2660 ± 490 µM	< 1e-05 s⁻¹	4.17e-05 ± 1.6e-06 s⁻¹	0.00013 ± 2.3e-06 s⁻¹	0.000467 ± 4.5e-05 s⁻¹	0.000533 ± 2.4e-05 s⁻¹
AUAAAAGCGCCAGAACUACAGAAAUGUAGUCGCCGAGGAGGAGGUUUAUCGAAUUUUCGGCGGAUGCCUCCAAA	< 1e-05 s⁻¹	5010 ± 1800 µM	< 1e-05 s⁻¹	< 1e-05 s⁻¹			
AUAAAAGCGCUAGAACUACAGAAAUGUAGUUGACGAGGAGGAGGUUUAUAGAAUUUUCGGCGGAUGCCUCCAAA	< 1e-05 s⁻¹			< 1e-05 s⁻¹			< 1e-05 s⁻¹
AUAAAAGCGCCAGAACUACAGAAAUGUAGUUGACGAGGAGGAGGUUUAUCGAAUUCUUGGCGGAUGCCUCCAAA	6.39e-05 ± 2.4e-06 s⁻¹	4240 ± 440 µM				2.41e-05 ± 1.1e-05 s⁻¹	4.48e-05 ± 8.5e-06 s⁻¹
AUAAAAGCGCCAGAACUACAGAAAUGUAGUUGACGAGGAGGAGGUUUAUCGAAUUUUCGGAGGAUGCCUCGAAA	1.3e-05 ± 2.8e-06 s⁻¹						
AUAAAAGCGCCAGAACUACAGAAAUGUAGUGGACGAGGAGGAGGUUUAUCGAAUUUUCGGCGGAUGCCUGCAAA	0.000132 ± 1.8e-05 s⁻¹	595 ± 260 µM		5.51e-05 ± 2.2e-05 s⁻¹	6.05e-05 ± 1.2e-05 s⁻¹	0.000118 ± 3.1e-05 s⁻¹	0.000126 ± 1.8e-05 s⁻¹
AUAAAAGCGCCAGACCUACAGAAAUGUAGUUGACGAGGAGGAGGUUUAUCGAAUUUUCGGCGGCUGCCUCCAAA	1.33e-05 ± 4.6e-06 s⁻¹						
AUAAAAGCGCCGGAACUACAGAAAUGUAGUUGACGAGGAGGAGGUUUAGCGAAUUUUCGGCGGAUGCCUCCAAA	0.00103 ± 0.00035 s⁻¹						6.93e-05 ± 1.7e-05 s⁻¹
AUAAAAGCGCCAGAAUUACAGAAAUGUAGUUGACGCGGAGGAGGUUUAUCGAAUUUUCGGCGGAUGCCUCCAAA	< 1e-05 s⁻¹	28.4 ± 13 µM	< 1e-05 s⁻¹		< 1e-05 s⁻¹	< 1e-05 s⁻¹	
AUAAAAGCGCCAGAACUACAGAAAUGUAGUUGACGAGGAGGAGGUUUCUCGAGUUUUCGGCGGAUGCCUCCAAA	0.000334 ± 1.5e-05 s⁻¹	2130 ± 190 µM			7.49e-05 ± 1.2e-05 s⁻¹	0.000187 ± 2.9e-05 s⁻¹	0.000272 ± 3.6e-05 s⁻¹
AUAAACGCGCCAGUACUACAGAAAUGUAGUUGACGAGGAGGAGGUUUAUCGAAUUUUCGGCGGAUGCCUCCAAA	1.09e-05 ± 1.1e-06 s⁻¹						
AUAAAAGCGCCAGAAGUACAGAAAUGUAGUUGACGAGGAGGAGGUUUAUCGAAUUUUCGGCGGAUGCCUACAAA	3.75e-05 ± 1.5e-05 s⁻¹					6.29e-05 ± 1.4e-05 s⁻¹	2.51e-05 ± 1.1e-05 s⁻¹
